Data taken from publication PMC2673055 (The Journal of biological chemistry, 2007).
Like-named read-outs stand apart in the source and are kept apart here.

Assays:
Experiment in all cases: SPR
[1] = target: recombinant matrilin-3 A-domain (human) (UniProt O15232)
[2] = target: T1, full-length type IX collagen (human, UniProt P20849 24-921; Q14055 24-689; Q14050 26-684)
[3] = target: T1, full-length type IX collagen; remark: listed apart in the source

“vitreous form of human type IX collagen (from UniProt Q14055 24-689; Q14050 26-684) (complex)” was tested, and the Kd [1] was 3.25 nM.

B1: full-length matrilin-3 (natural protein, UniProt O15232 29-486, looked up)
chain: DPVARPGFRRLETRGPGGSPGRRPSPAAPDGAPASGTSEPGRARGAGVCKSRPLDLVFIIDSSRSVRPLEFTKVKTFVSRIIDTLDIGPADTRVAVVNYASTVKIEFQLQAYTDKQSLKQAVGRITPLSTGTMSGLAIQTAMDEAFTVEAGAREPSSNIPKVAIIVTDGRPQDQVNEVAARAQASGIELYAVGVDRADMASLKMMASEPLEEHVFYVETYGVIEKLSSRFQETFCALDPCVLGTHQCQHVCISDGEGKHHCECSQGYTLNADKKTCSALDRCALNTHGCEHICVNDRSGSYHCECYEGYTLNEDRKTCSAQDKCALGTHGCQHICVNDRTGSHHCECYEGYTLNADKKTCSVRDKCALGSHGCQHICVSDGAASYHCDCYPGYTLNEDKKTCSATEEARRLVSTEDACGCEATLAFQDKVSSYLQRLNTKLDDILEKLKINEYGQIHR
With B1 the Kd [2] was 1.5 nM.

B2: recombinant matrilin-3 A-domain (domain or fragment, human, UniProt O15232 76-263, looked up)
chain: VCKSRPLDLVFIIDSSRSVRPLEFTKVKTFVSRIIDTLDIGPADTRVAVVNYASTVKIEFQLQAYTDKQSLKQAVGRITPLSTGTMSGLAIQTAMDEAFTVEAGAREPSSNIPKVAIIVTDGRPQDQVNEVAARAQASGIELYAVGVDRADMASLKMMASEPLEEHVFYVETYGVIEKLSSRFQETFC
Work on B2 yielded a Kd [3] of 1.37 nM.
